{"source": "patent US20080096792A1", "about": "(SEOUL NATIONAL UNIVERSITY INDUSTRY FOUNDATION, published 2008)", "molecules": {"B1": {"name": "recombinant LG3 protein of the human laminin-5 α3 chain (rLG3-His6) (ligand)", "chain": "MRGSHHHHHHGMASMTGGQQMGRDLTDDDDKDPSSRSAAGTMEFDFVRLNDTVGVTKKCSEDWKLVRSASFSRGGQLSFTDLGLPPTDHLQASFGFQTFQPSGILLDHQTWTRNLQVTLEDGYIELSTSDSGGPIFKSPQTYMDGLLHYVSVISDNSGLRLLIDDQLLRNSKRLKHISSSRQSLRLGGSNFEGCISNVFVQRLSLSPEVLDLTSNSLKRDVSLGGCSLNKPPFLMLLKGSTRFNKTKTFRINQLLQDTPVASPRSVKVWQDACSPLPKTQANHESLVNSLLDPAANKARKVAELAAATAEQ"}}, "key": {"[1]": {"molecular_target": "integrin α3β1 on HOK-16B cells (human (HOK-16B human oral keratinocytes)) (UniProt P26006)", "sequence (P26006 33-1051, chain 1 of 2)": "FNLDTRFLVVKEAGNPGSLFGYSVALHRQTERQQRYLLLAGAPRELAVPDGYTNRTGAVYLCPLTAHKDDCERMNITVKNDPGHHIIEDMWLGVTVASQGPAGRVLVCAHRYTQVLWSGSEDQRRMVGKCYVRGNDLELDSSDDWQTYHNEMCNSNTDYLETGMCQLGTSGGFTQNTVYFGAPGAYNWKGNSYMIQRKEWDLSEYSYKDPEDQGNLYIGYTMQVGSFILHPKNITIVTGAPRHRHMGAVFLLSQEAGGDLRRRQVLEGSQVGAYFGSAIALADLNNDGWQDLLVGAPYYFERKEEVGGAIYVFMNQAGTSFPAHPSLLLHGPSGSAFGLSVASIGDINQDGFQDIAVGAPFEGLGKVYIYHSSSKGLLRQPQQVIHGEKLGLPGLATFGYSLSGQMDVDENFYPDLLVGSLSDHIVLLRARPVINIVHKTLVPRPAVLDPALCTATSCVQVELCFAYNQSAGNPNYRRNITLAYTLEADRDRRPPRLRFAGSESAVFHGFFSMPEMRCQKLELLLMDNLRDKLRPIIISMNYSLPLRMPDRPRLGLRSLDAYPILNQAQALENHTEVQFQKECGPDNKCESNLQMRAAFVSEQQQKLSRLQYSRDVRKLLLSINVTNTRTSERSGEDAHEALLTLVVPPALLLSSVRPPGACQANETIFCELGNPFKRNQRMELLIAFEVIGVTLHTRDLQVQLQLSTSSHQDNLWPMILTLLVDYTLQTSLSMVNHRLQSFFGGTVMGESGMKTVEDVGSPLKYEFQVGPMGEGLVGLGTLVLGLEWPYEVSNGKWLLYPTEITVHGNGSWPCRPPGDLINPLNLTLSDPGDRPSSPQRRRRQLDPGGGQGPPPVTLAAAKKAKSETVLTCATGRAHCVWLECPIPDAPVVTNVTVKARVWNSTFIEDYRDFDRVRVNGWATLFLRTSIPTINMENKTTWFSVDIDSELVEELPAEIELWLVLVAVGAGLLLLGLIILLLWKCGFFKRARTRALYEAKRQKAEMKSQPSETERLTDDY", "sequence (P05556 21-798, chain 2 of 2, further chain)": "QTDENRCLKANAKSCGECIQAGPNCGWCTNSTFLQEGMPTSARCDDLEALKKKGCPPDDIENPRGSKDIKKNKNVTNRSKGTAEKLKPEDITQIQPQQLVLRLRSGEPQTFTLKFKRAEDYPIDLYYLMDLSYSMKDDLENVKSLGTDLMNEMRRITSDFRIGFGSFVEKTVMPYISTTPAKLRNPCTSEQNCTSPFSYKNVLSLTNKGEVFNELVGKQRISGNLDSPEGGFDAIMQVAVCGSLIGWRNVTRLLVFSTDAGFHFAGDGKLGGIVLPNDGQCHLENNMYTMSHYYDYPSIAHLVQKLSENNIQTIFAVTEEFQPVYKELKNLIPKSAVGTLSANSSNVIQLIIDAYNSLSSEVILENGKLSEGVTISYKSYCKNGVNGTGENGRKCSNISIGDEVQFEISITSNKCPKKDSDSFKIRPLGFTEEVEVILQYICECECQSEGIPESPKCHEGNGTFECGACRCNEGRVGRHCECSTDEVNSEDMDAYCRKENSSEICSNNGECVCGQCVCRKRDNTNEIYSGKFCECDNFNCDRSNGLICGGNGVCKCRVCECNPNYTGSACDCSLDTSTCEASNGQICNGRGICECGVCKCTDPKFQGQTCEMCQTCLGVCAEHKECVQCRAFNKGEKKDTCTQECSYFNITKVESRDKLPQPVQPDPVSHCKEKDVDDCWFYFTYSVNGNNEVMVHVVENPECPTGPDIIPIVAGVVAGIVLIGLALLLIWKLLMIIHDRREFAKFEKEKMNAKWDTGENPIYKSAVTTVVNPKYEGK", "assay": "cell-based or functional assay"}, "[2]": {"molecular_target": "integrin α3β1 on HOK-16B cells (human (HOK-16B human oral keratinocytes), UniProt P26006 33-1051; P05556 21-798)", "sequence (P26006 33-1051, chain 1 of 2)": "as the sequence (P26006 33-1051, chain 1 of 2) above", "sequence (P05556 21-798, chain 2 of 2)": "as the sequence (P05556 21-798, chain 2 of 2, further chain) above", "assay": "cell-based or functional assay"}}, "data": [{"molecule": "human placental laminin (LN) (ligand)", "values": [{"measurement": "FAK phosphorylation at Tyr-397 in HOK-16B cells, fold induction compared with the untreated control", "setting": "[1]", "result": 16.2, "unit": "fold"}]}, {"molecule": "B1", "values": [{"measurement": "FAK phosphorylation at Tyr-397 in HOK-16B cells, fold induction compared with the untreated control", "setting": "[2]", "result": 8.2, "unit": "fold"}]}]}
